Measurements reported in the DeepSol protein solubility set.

Assay: soluble on expression in E. coli; label from the status in PepcDB or PDB records

Sequence | soluble on expression in E. coli
MGSDKIHHHHHHMSINFDLNDLQAFRAVVENGSFRKAAESVRITQPALSRRIEKLESALNVKLFERTTRKVSLTTVGRAFLPQVERILDDLDIALMTIGEVGSTRMGSVTIACVPSAAYYFMPQVISAFREDYPKIRVKVLDASANEVNSAVALGEADFGVSFSGNLAPEVDFELLLQERYVMACRRDHSLAIRESVSWEEMYSHDYIALDITSGNRLVLDQALARSRPHKESICETRHVTTMIGLVEAGLGVAAVPSIAMPMTAHPFLVSVPLVEPEVIRNVGLIKRRGRTLTPAALELEQLVRKMPFRSAGN | not soluble
MEYLFLRRKRTTATSERQKTLLFKAAERQWKEEFAGKETDIRKVDCNIYKGILYQLEIRQVFLDTSLSLKKLSALLETNQTYLSNVVNKYFGCNLKELVNTYRVEYAKELLCSRRCALTELPCSCGFASKSAFYSAFSRIVGVSPLSYQTQERRRHHLQAVNLEHHHHHH | not soluble
SNAEELIEIREARMDDLDTIAKFNYNLAKETEGKELDMDVLTKGVKALLLDERKGKYHVYTVFDKVVAQIMYTYEWSDWRNGNFLWIQSVYVDKEYRRKGIFNYLFNYIKNICDKDENIVGMRLYVEKENINAKATYESLNMYECDYNMYEYEVIHS | soluble
MIDLHCHSTVSDGMLSPAEVVRLAHQNGCTLLALTDHDHTGGIAEARAEADKLGLRLINGVEISVTWRGRTIHVVGLDFDEQDENLQNLLAQVRKGRLKRLEAIAAKLEKKGIGGAYDGALALAANKEMVSRTHVAEFLIQAGHVKNKQQAFTKYLGDGKSCAVRHEWATLEDCVSAVNGAGGMAVIAHPMRYDLSATAKRNLFEEFKNLGGAGIEVHSGNCCKNDRLNYALLAERFGMLASAGSDFHRLNDFSGGILGACPELPENCKPVWEHFSRY | not soluble
MGSDKIHHHHHHMNPEFIHGATEIETTNRGLRPHRLSKEIVERYCDPQFSAMERQPSGVRVVCRTTATSVTLTTYSTRVVYLDSGRPGGKIDVLIDGAPTSSTPTSGGETTEVNFITGATERRLKDPQVLTVDGLSEQEKVVEFWLPHNEEIEVISLKANAALNTVEDTRPVWINYGSSISHGSVATAPTKIWPAIVAQSKNYNLRNFGFGGSAMLDPFMARLIRDTPADLITLEIGINIVNGDVMRRRGLEAAVDGFINTIRDGHPTTPIKIVSPFYCPIHEKTPGPGAFDTSSFGSGQIRFIATGEPDEHGRLTLEMVREVLEGFVEKQKDPHLTYVDGASLYQASDAPLLDNLHPDEASHALIAQRLLKQL | not soluble
MDIKHEMIYREDDVLLVKSEPQLHSPCATGSNGLPAGAGSNLLCASNGLVTTLASGSSLNGLTNNVPSNGLSSSGPFSSIGGGVSASKRQRTDDWLSSPSGNVPPLTPSPGPPSHPYTVISNGYSSPMSSGSYDPYSPNGKIGREDLSPSSLNGYSADSCDSKKKKGPTPRQQEELCLVCGDRASGYHYNALTCEGCKGFFRRSITKNAVYQCKYGNNCEIDMYMRRKCQECRLKKCLSVGMRPECVVPEVQCAVKRKEKKAQKEKDKPNSSTNGSPDVIKVEPELSDSEKTLCNGSKGISPEQEELIHRLVYFQNEYEHPSEEDVKRIINQPMDGEDQCDVRFRHITEITILTVQLIVEFAKRLPGFDKLLREDQIALLKACSSEVMMFRMARRYDVQTDSILFVNNQPYSRDSYNLAGMGETIEDLLHFCRTMYSMRVDNAEYALLTAIVIFSERPALIEGWKVEKIQEIYLEALRAYVDNRRKPKPGTIFAKLLSVLTELRTLGNQNSEMCFSLKLKNKKLPPFLAEIWDVDLKT | soluble
GIFPAEIEDLAQKQVAVDLTQPSRFLLKVLAGANIGAEFHLDSGKTYIVGSDPQVADIVLSDMSISRQHAKIIIGNDNSVLIEDLGSKNGVIVEGRKIEHQSTLSANQVVALGTTLFLLVDYAAPS | soluble
MGSDKIHHHHHHMKRVISLIDMDCFYAQVEQRDNPSLWGQPVIVVQHSRQGIEGGILAVSYEARPFGVKRGMTVAEAKLKCPQISICHVPIGEYVDKADIQKYRDASAEVFRVLNNYDSQIIIEKASVDEAFLDLSAYTNQKLQELRENEGLEEFLQAAITYLPTTHLATGEDVKENEHLREDVLLEYIENARNCTENLLLLIAAVTVEQIRQQIHEETQFFCSAGVGNNKMMAKLVCARHKPRQQTLIPWFYVREILRLTPIGDVRGFGGKMGNRIQEMLNITVRKRKYSKFQVIFRIFIEKLSEMSEICNFRRFYTIFKYFSLNLEIWKYSKKNQFFLAKKKEILRFSQLKIRKFEFPVTFYPRNPLMGELLEVDISQLIE | not soluble
MTNGQSPAGGVQSVERAFDILEIMASAGGSIGVSELADLAGLPLPTIHRLIRTLMNRGYVRQLPTRRYALGPKLIRLGESATQLIGAWSRPHLSELVRGTGETANMAVLDGTMAVYVAQVPSEHAMRMFTEVGRRVYPHCTGVGKAILMQLSNDAVRSLVGRTGMTTYTENSLTDPDMLIADLELSRNRGFAIDEGEQEIGVRCFSVPVPNAPTPTAISVSGPAARVTLESADHIVPLLKRVAKELGTEFDKNAAL | not soluble
MKHYDSMDQELITMPISNAFLKLFSEFVDNYARNGTPSFYHWAKEQNHEVINKFFHELLEIIKSNTETFHDVSIIEHLNATVLLSAKTNPYLLDCWISFITKYNAETNSFTPIGASMHIKVGPEGTPSERIIRELKESLVMTQQAFILAQKANATEVDSLKRQLEQTKQENERLVTQNQFLKDQVRAEKTFADLNPQINNARQQLSALTELIQTLSEITNAKPKIETVSSLSIPVVTENKSELLKENSCSVASVSKEVTPAISQEPKKRPVPPPPNDTDGQALSPNIPPKEDVSIKVTIPSMPKPNSTQPAAKNSGFFSGDGFLKELNAKIKERKERPKDEPHTTPVEKKNL | not soluble
MGSDKIHHHHHHMEKLQESMYQLIVETSTNLPKDVRRAIQQAKERENAGTRSAMALGTITNNIKMADDNISPICQDTGMPTFKIYTPVGVNQLKLKEAIYNALERATKDGKLRPNSVDSLFGDNSGNNLGPGTPVIKFEQWEKDYIDARLILKGGGCENKNIQYSLPCELEGLGRAGRDLEGIRKCLLHAVYQAQGQGCSAGVIGVGIGGDRTSGYELAKNQLFRTLDDVNPIPELQQLEEYVLENANKLGIGTMGFGGETTLLGCKIGVYNRLPASFYVSVAYNCWAYRRLGVTIHPETGEIMDWLYQEGEDTLEQEVQEKTEQREIVLQAPITEEQIRELRVGDVVTINGMMYTGRDAIHKHLMDNDCPVDLNGQIIYHCGPVVVKDENDNWQIKAAGPTTSIREEPYQGDIMKKFGIRAVIGKGGMGAKTLAALEEHGGVYLNAIGGAAQYYAECIKEVKDVDFLQFGIPEAMWHLRIDGFKAVVTMDSHGNSLHADVDKTSLEKLASFKEPVFK | not soluble
MGSDKIHHHHHHRSPQGQFTEDDNPNALVNGKIYNVYTMMRSFDITAGTPAIAIHYLRSEDSEKGSIPSDGSDVAEMYDDFLYTPTNGLLGSYWGKNYAIIYQCNDILDAIAEKETAGQTETEDIINKGEASFFRAYCYFNLVRAFGEVPLVTYKINDASEANIPKTTADKIYEQIDTDLKTAEESLPETWSTEYTGRLTWGAARSLHARTYMMRSDWDNMYKASTDVINKGLYNLKTPYNEIFTDDGENSGGSIFELQCTATAALPQSDVIGSQFCEVQGVRGAGQWDLGWGWHMATQLMADAYETGDPRKNATLLYFRKTDDEPITPENTNEPYGESPISPAMGAYFNKKAYTDPALRKEYTNKGFWVNIRLIRYSDVVLMAAEAANEKNIPGEAVDYLEMVRARARGTNTNILPKITTNDQGELREAIRHERRVELGLEPDRFYDLVRWGIASEVLHAAGKVNYQDKNALLPLPQSEIDKSKGVLVQNPDY | not soluble
MGSDKIHHHHHHLNQERFDYRTGILASPSEVDAAEWNALLAQQPQPTPFLRHEFLSALHATRCAVADTGWAPQFVTLTDPRTDKLVAAAPVYLKGHSYGEYVFDWAWADAYKRNGLPYYPKLLCAVPFTPVQGNRLLSADTHALRHLAATLMAFAEQADVSSLHVLFPTETEANALTEMGMMQREGVQFHWLNDGYRDFDDFLSTLEQKKRKNIRAERRKVHEAGVTMRRIRGEDIQDADWRFFSKCYRQTYREHFSSPYLNLDFFRMIGESMPENLLLVIAEYEGKPIASSLVVYQRDAKTGGTLYGRYWGALEHVPCLHFETAYYQPLEFCIEEKLGAFEGGAQGEHKMARGFLPTVTRSAHWLAHPAFADAVGHFLDNEKNSIHAYVDELREHNPFKG | not soluble
MNSALYANYLNILKQELVPALGCTEPIAIAYAAAKAHQVLGEFPDSVNMSLSGNIIKNVKGVTVPNSGGLKGIDVAAILGIVGGNADKALEVLSEITEDDIARTRELVKQHVCSCSLVEGVDNLYITAKVIKGDHFASVTIEHQHTNITRIEKDGEVILDNPYQAECKTVIDKSKLTVKDILDFADQVRIEDVQPIIDRQIKLNSAIAQEGLDNNYGAQIGKTLMHVWGKSVTTRACARAAAGSDARMGGCSMPVVINSGSGNQGMTVSLPVIVFADEWEVSHEKLCRSLVVSNLIAIHQKYYIGSLSAYCGAVSAACGAGAGITYMYGGTYQQVSLTIINTLGNVGGIVCDGAKPSCAAKIASSVDAALMAFQLSIQNKSFLPGEGIIKDDIEETIKSMGYIGRVGMRSTDTEILNVMIDRADINQGC | not soluble
LNKTLFLGYAFLLTMATTSDKLASRSKLPDGPTGSSEEEEEFLEIPPFNKQYTESQLRAGAGYILEDFNEAQCNTAYQCLLIADQHCRTRKYFLCLASGIPCVSHVWVHDSCHANQLQNYRNYLLPAGYSLEEQRILDWQPRENPFQNLKVLLVSDQQQNFLELWSEILMTGGAASVKQHHSSAHNKDIALGVFDVVVTDPSCPASVLKCAEALQLPVVSQEWVIQCLIVGERIGFKQHPKYKHDYVSH | soluble
MKIGIGSDHGGYNLKREIADFLKKRGYEVIDFGTHGNESVDYPDFGLKVAEAVKSGECDRGIVICGTGLGISIAANKVPGIRAAVCTNSYMARMSREHNDANILALGERVVGLDLALDIVDTWLKAEFQGGRHATRVGKIGEIEKKYSK | soluble
MSLAVIKQDDLIQSVADALQFISYYHPVDFIQAMHEAYLREESPAARDSMAQILINSRMCATGHRPICQDTGIVTVFVRVGMDVRWDGATMSVDDMINEGVRRAYNLPENVLRASILADPAGARKNTKDNTPAVIHYSIVPGDKVEVDVAAKGGGSENKSKMAMLNPSDSIVDWVLKTVPTMGAGWCPPGMLGIGIGGTAEKAAVMAKEVLMDPIDIHELKARGPQNRIEELRLELFEKVNQLGIGAQGLGGLTTVLDVKIMDYPTHAASLPVCMIPNCAATRHAHFVLDGSGPAELEAPSLDAYPEIVWEAGPSARRVDLDKITPEEVQSWKPGETLLLNGKMLTGRDAAHKRMVDMLNKGETLPVDLKGRFIYYVGPVDPVGDEVVGPAGPTTATRMDKFTRQILEQTGLLGMIGKSERGPIAIEAIKDNKAVYLMAVGGAAYLVAQAIKKSKVLAFAELGMEAIYEFEVKDMPVTVAVDTNGESVHITGPAVWQKKIAESLAVEVKEGGSHHHHHH | soluble
MRPDAVMIFAAGFGTRMGALTATRPKPMIEVAGRPLIDHALALAEAAGISRIVANTHYLPESLTAHLAGRALVSHEEEILETGGGLCRALPLLGEGPVYTLNSDAVWTGENPLDELAAGWREGMEALLLLAPSGCAPGDFTMDAAGRLARARGAPGYTYLGAQILRTDRLAGVAEAKFSLNLVWDAMIAAGTAHGLIHRGGWCDVGRPEGIAAAEAMLANVLEHHHHHH | not soluble
